Columns and labels:
Assay in all cases: cell-based or functional assay
[1] = target: MIP-1α/RANTES receptor (Homo sapiens (Human)) (UniProt P32246)
[2] = target: MCP-1RA (monocyte chemoattractant protein-1 receptor A) (human) (UniProt P41597)
[3] = target: MCP-1RB (monocyte chemoattractant protein-1 receptor B) (human) (UniProt P41597)
Sequence of MCP-1RB (monocyte chemoattractant protein-1 receptor B) (human) (P41597 other isoform, or with tags, fused parts or gaps): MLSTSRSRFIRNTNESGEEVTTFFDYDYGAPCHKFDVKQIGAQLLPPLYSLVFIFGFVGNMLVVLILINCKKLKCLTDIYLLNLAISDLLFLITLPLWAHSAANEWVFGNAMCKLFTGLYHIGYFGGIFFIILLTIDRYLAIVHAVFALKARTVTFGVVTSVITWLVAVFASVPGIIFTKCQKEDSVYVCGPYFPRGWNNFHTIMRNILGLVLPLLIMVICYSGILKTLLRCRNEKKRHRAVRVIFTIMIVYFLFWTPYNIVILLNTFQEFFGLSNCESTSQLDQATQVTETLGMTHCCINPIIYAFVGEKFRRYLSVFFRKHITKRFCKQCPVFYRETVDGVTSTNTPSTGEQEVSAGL

Sequence of MIP-1α/RANTES receptor (Homo sapiens (Human)) (P32246 whole entry): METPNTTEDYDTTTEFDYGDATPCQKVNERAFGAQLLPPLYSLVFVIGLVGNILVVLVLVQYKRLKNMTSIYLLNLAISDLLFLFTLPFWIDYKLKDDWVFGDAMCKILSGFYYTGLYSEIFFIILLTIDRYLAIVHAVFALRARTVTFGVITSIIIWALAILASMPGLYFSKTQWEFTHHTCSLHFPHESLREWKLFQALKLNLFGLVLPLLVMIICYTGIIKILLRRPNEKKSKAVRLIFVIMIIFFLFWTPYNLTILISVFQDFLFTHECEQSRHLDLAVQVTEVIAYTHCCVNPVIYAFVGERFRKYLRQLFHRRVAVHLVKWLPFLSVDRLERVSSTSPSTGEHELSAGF
Sequence of MCP-1RA (monocyte chemoattractant protein-1 receptor A) (human) (P41597 whole entry): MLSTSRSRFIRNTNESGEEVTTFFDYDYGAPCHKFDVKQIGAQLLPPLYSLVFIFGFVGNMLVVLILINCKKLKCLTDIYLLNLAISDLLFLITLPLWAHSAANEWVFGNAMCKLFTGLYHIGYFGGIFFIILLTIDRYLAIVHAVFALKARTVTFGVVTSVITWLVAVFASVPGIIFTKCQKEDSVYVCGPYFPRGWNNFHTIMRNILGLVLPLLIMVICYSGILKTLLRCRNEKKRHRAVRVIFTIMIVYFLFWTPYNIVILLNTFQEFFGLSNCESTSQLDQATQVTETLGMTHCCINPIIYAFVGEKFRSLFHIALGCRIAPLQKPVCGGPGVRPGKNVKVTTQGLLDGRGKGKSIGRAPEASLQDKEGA

Substance | IC50(nM), Inhibition of Adenylyl Cyclase, 293 cells stably expressing the MIP-1α/RANTES receptor [1] | IC50(nM), Inhibition of Adenylyl Cyclase, 293 cells stably expressing MCP-1RB [3] | also measured
MCP-1 (monocyte chemoattractant protein-1) (from UniProt P13500 24-99) (ligand) | 820 nM | 0.09 nM | EC50, 45Ca efflux in Xenopus oocytes injected with receptor cRNA [2]: 15 nM; EC50, 45Ca efflux in Xenopus oocytes injected with receptor cRNA [3]: 15 nM; EC50, intracellular calcium mobilization (indo-1) in stably transfected MCP-1RB/293 cells [3]: 3.4 nM; Selectivity (MCP-1RB against the MIP-1α/RANTES receptor, from the adenylyl cyclase IC50s) [3]: > 9000 fold; block of the forskolin-induced increase of cAMP in MCP-1RB-transfected 293 cells [3]: 78%; reduction of basal cAMP accumulation in MCP-1RB-transfected 293 cells [3]: 55%
Gro-α (from UniProt P09341 35-107) (ligand) | > 1000 nM | > 1000 nM | –
MIP-1β (from UniProt P13236 24-92) (ligand) | – | > 1000 nM | –
MIP-1α (from UniProt P10147 27-92) (ligand) | – | > 1000 nM | –
RANTES (from UniProt P13501 24-91) (ligand) | – | > 1000 nM | –
IL-8 (interleukin-8) (from UniProt P10145 28-99) (ligand) | – | > 1000 nM | –

— US20040223968A1
